Laboratory results from US8323971B2, “Differentiation of pluripotent cells into primary germ layer progenitors” (Cambridge Enterprise Limited, priority 2006, dated 2012).

Assays:
Format in all cases: cell-based, human
hESCs = test: Quantitation of β-tubulin III positive cells in monolayer differentiation; conditions: expressing hESCs differentiated in CDM, monolayer, 24 days
Description: In some experiments, Wildtype and Lefty expressing hESCs were grown on fibronectin in FGF (12 ng/ml)/Activin (20 ng/ml) as a monolayer in the absence of a feeder layer (Vallier et al., 2005). When cells were 70-80% confluent medium was changed to either CDM only, CDM/FGF (12 ng/ml), CDM/Noggin 200 ng/ml, CDM/SU5402 and differentiated for 24 days.
To quantify the neurogenic potential of Lefty expressing hESCs, we cultured Lefty expressing hESCs in feeder-free conditions as a monolayer in CDM supplemented with Activin and FGF as described previously (Vallier et al., 2005). When cells reached 70-80% confluency, medium was changed to CDM only, CDM plus FGF (12 ng/ml) (CDM/FGF), CDM plus the BMP inhibitor Noggin (200 ng/ml) ([…]) (CDM/SU5402), and cells were cultured in these conditions for 24 days
The incidence of neural differentiation was determined by counting the number of β-tubulin III positive cells in random fields.

hESC derived EBs [1] = test: Incidence of beating structures in EBs plated in MEF media; conditions: over-expressing EBs in MEF medium containing FBS
Description: Lefty, Cerb-S expressing and wildtype EBs were plated in MEF media, and beating EBs were counted. Lefty expressing EBs generated fewer beating structures as compared to wildtype EBs (NS=not significant) (Scale bar=[…]).
In some experiments, hESCs were incubated in DMEM supplemented with 10% FCS and 1 mM glutamine (MEF media) to promote mesoderm formation. EBs were then grown for 12-16 days at 37° C. at […] before being harvested for histological or molecular marker analysis.
To evaluate further the differentiation potential of Lefty and Cerb-S overexpressing hESCs, EBs were cultured in MEF medium containing fetal bovine serum (FBS), which promotes the formation of mesoderm lineages including cardiomyocytes, as recognised by rhythmically beating structures. […] Nodal expressing EBs grown in these conditions were not seen to generate such beating structures, and instead maintained expression of the pluripotency marker Oct-4 (FIG. 7).

hESC derived EBs [2] = test: Real time qPCR / RT-PCR of neuroectoderm and pluripotency markers in EBs; conditions: expressing EBs compared to wildtype
Description: Four independent batches of WT and Lefty EBs were used for this analysis.
Five independent batches of DMSO- and SB431542-treated EBs were used for this analysis.
(§1) Lefty or Cerb-S expressing hESCs (as well as wildtype H9 and hSF-6 hESCs) were grown in 6 cm dishes (Corning), on mouse feeders. When confluent, hESCs were passaged using collagenase 1 mg/ml, as previously described (Schatten et al., 2005) and cultured in non-adherent conditions in CDM supplemented with either SU5402 (Calbiochem; 10 μM), SB431542 (Tocris; 20 μM), FGF-2 (R&D Systems; 12 ng/ml) or Noggin 200 ng/ml.
For some RT-PCR experiments, 50-100 ng of RNA were used for each RT-PCR reaction, using the OneStep RT-PCR kit according to manufacturer instructions. For real-time PCR, 1 μg RNA was reverse-transcribed using the Qiagen QuantiTect Reverse Transcription kit. 1/20-1/40 of each cDNA reaction was used for each real-time PCR reaction using the QuantiTect SYBR Green PCR Kit (Qiagen) according to manufacturer instructions. Relative quantification of gene expression was done by normalising the detected levels of gene of interest mRNA to those of the house-keeping GAPDH gene. All primers were purchased from Qiagen, with the exception of Xenopus Cerb-S: Forward 5′-[…]-3′ (SEQ ID NO: 1); Reverse 5′-ATGGTGCAGGGTAG TAGATG-3′ (SEQ ID NO: 2). Mouse Lefty2: Forward 5^r-[…]-3′ (SEQ ID NO: 3); Reverse 5′-[…]-3′ (SEQ ID NO: 4).

hESC derived EBs [3] = test: Quantitation of rosette structures in EBs; conditions: expressing EBs grown in CDM
Description: as §1
To investigate the development of EBs derived from Lefty or Cerb-S overexpressing hESCs, we grew the cells as EBs in suspension culture using CDM medium. As previously observed (Vallier et al., 2004a), wildtype control EBs grown in CDM developed almost exclusively as simple spheres with no apparent tissue organisation. […] Hematoxylin/Eosin staining of sectioned EBs confirmed that these folded structures found in Lefty overexpressing EBs were neuroectoderm-like, with internal epithelial rosettes. Lefty and Cerb-S expressing EBs contained respectively 5 times (Pb 0.05) and 2 times (not significant, N.S.) more epithelial rosettes than control EBs (FIG. 5).

B1: Lefty: mouse Lefty2, Nodal inhibitor stably over-expressed in hESCs (protein, UniProt P57785 78-368, looked up)
Left-right determination …: FSQNFREVAGRFLMSETSTHLLVFGMEQRLPPNSELVQAVLRLFQEPVPRTALRRFERLSPHSARARVTIEWLRVREDGSNRTALIDSRLVSIHESGWKAFDVTEAVNFWQQLSRPRQPLLLQVSVQREHLGPGTWSAHKLVRFAAQGTPDGKGQGEPQLELHTLDLKDYGAQGNCDPEVPVTEGTRCCRQEMYLDLQGMKWAENWILEPPGFLTYECVGSCLQLPESLTIGWPFLGPRQCVASEMTSLPMIVSVKEGGRTRPQVVSLPNMRVQTCSCASDGALIPRGIDL
β-tubulin III positive cells/field (hESCs): 69±13 cells/field | decrease of incidence of rhythmically contracting structures compared to wildtype EBs (hESC derived EBs [1]): ~79% | Nestin, Sox3 and Sox1 expression (real-time qPCR) (hESC derived EBs [2]): increased average levels | epithelial rosettes relative to control EBs (hESC derived EBs [3]): 5 times
